# Data published in the RNAGym collection of RNA variant scans (doi:10.1093/nar/gkz1192).
# B1: CPEB3 Ribozyme (parent)
# chain: UAACAGGGGGCCACAGCAGAAGCGUUCACGUCGCAGCCCCUGUCAGAUUCUGGUGAAUCUGCGAAUUCUGCUGUAUAUCUC
# Variants of: B1
# Assay: self-cleavage, relative activity (ratio to wild type); higher = more cleavage; in vitro, sequencing
# Method in brief: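 Relative activity was defined as the cleaved/total read fraction for a variant divided by the same fraction for the unmutated ribozyme. CPEB3 self-cleaving ribozyme libraries were made by rounds of error-prone PCR, barcoded, and transcribed in vitro with T7 RNA polymerase for 5 hours at 37°C, and cleavage ran through transcription plus a 15 min DNase I step before EDTA. Illumina sequencing of template-switched reverse transcripts gave the reads, and DNA sequencing mapped the barcodes. Averages come from three batches, using variants with at least 5 reads.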
row,Variant,self-cleavage
1,G19U U67A,0.13
2,G19U U67C,0.13
3,A20G U26A,0.77
4,A20G U26G,0.36
5,A20G U26C,0.37
6,G19U U41C,0.22
7,G19U U41A,0.22
8,G19U G36C,0.19
9,G19U G36A,0.18
10,G19A C59U,0.17
11,G19A U69C,0.13
12,G19A U69A,0.14
13,G19U G61C,0.13
14,G19U G61A,0.3
15,G19C C37U,0.16
16,A20G C71U,0.56
17,A20G C71A,0.15
18,A20G C71G,0.14
19,A20C C27A,0.37
20,A20C A57G,0.09
21,G19U A21G,0.2
22,G19U C40A,0.21
23,A20G G53A,0.98
24,A20G G53U,0.69

row,Variant,self-cleavage
1,A20C A65G,0.42
2,A20C A45C,0.35
3,A20C A45U,0.2
4,A20C A45G,0.33
5,A20C G30U,0.05
6,G19U C44A,0.43
7,G19U C44U,0.18
8,A20G A56U,0.47
9,A20G A56G,0.66
10,G19A U66A,0.13
11,G19A U66G,0.51
12,G19A U66C,0.44
13,G19A U31A,0.44
14,G19U A56G,0.5
15,G19U A56U,0.14
16,G19C A56G,0.07
17,G19C A56U,0.19
18,A20C U74C,0.46
19,G19U A20U,0.42
20,G19U A20G,0.29
21,A20C A28G,0.24
22,G19U U72G,0.4
23,G19U U72C,0.4
24,G19U U72A,0.32

row,Variant,self-cleavage
1,A20G G73A,1.22
2,A20G G73U,1.19
3,A20G G52A,0.9
4,A20G G52U,1.12
5,A20G A21C,0.32
6,A20G A21G,0.37
7,A20G A21U,0.26
8,G19U C37A,0.31
9,G19U C37U,0.38
10,A20G C59U,0.82
11,A20G C59G,0.45
12,G19C U74C,0.19
13,G19U U69C,0.09
14,G19U U69A,0.27
15,A20G U43C,0.4
16,A20G U43A,1.05
17,A20G U43G,0.44
18,G19U G63U,0.28
19,A20C U67C,0.33
20,G19U U51A,0.18
21,G19U U51C,0.22
22,A20C U58C,0.43
23,A20C C62U,0.12
24,A20C U26A,0.21

row,Variant,self-cleavage
1,A20C U26C,0.34
2,A20G A57G,0.7
3,A20G A57U,0.53
4,A20G A57C,0.26
5,G19A U78A,0.47
6,A20G A45G,0.61
7,A20G A45C,0.24
8,A20G A45U,0.3
9,G19C G22A,0.22
10,G19C G53A,0.09
11,G19C,0.29
12,G19U,0.27
13,G19U A45U,0.2
14,G19U A45C,0.22
15,G19U A45G,0.08
16,G19U A64U,0.15
17,A20C A77G,0.11
18,A20C A77U,0.35
19,G19A U72C,0.18
20,G19C A20U,0.4
21,G19C A28U,0.07
22,A20G C38U,0.37
23,A20G C38G,0.12
24,A20G C38A,0.37

row,Variant,self-cleavage
1,A20C U60A,0.43
2,A20C U60C,0.17
3,A20C A47G,0.45
4,A20C A47U,0.47
5,A20G A65U,0.29
6,A20G A65G,0.32
7,A20G A65C,0.13
8,G19C G52U,0.35
9,A20C U69A,0.34
10,A20C U69C,0.18
11,A20C A56C,0.22
12,A20C A56G,0.27
13,G19A U26C,0.31
14,G19U U48A,0.2
15,G19U U48C,0.2
16,A20G C29U,0.36
17,A20G C29G,0.39
18,G19A G42A,0.15
19,A20C C32A,0.25
20,A20G C62U,0.2
21,A20G C62G,0.17
22,G19U U25G,0.2
23,G19U U25A,0.19
24,G19U U25C,0.08

row,Variant,self-cleavage
1,G19C G30C,0.25
2,G19C A35U,0.22
3,G19C A35C,0.2
4,G19U A65G,0.26
5,G19U A65U,0.09
6,G19A U54C,0.23
7,G19A U67C,0.17
8,G19A U67A,0.07
9,G19A U41C,0.22
10,A20C U66G,0.45
11,A20C U66C,0.23
12,A20G C79G,1.09
13,A20G C79A,1.09
14,A20G C79U,0.85
15,A20C A35U,0.17
16,A20C A35G,0.88
17,G19A U60G,0.4
18,G19U C50A,0.15
19,G19U C50U,0.38
20,A20G U58C,0.36
21,A20G U58G,0.11
22,A20G U58A,0.27
23,A20C C44U,0.22
24,A20C U54C,0.2

row,Variant,self-cleavage
1,A20C C23A,0.09
2,A20G G70A,0.33
3,A20G G70C,0.19
4,A20C A21G,0.49
5,A20C A21U,0.2
6,A20G C34A,0.11
7,A20G C50U,0.99
8,A20G C50G,0.57
9,A20G C50A,0.89
10,G19C G24A,0.11
11,G19A U51A,0.31
12,G19A U51C,0.32
13,G19A C62U,0.36
14,A20C G24C,0.1
15,A20C G24A,0.21
16,A20G U48C,0.4
17,A20G U48A,0.38
18,A20G U48G,0.31
19,G19A G36C,0.14
20,A20G A47U,0.42
21,A20G A47C,0.44
22,A20G A47G,0.75
23,G19C U25C,0.06
